Article PMC8509414, “A Novel GUCA1A Variant Associated with Cone Dystrophy Alters cGMP Signaling in Photoreceptors by Strongly Interacting with and Hyperactivating Retinal Guanylate Cyclase” (International Journal of Molecular Sciences, 2021)

Legend:
[1] = molecular target: the molecule itself; experiment: SEC; analytical gel filtration, Superose 12 10/300, 20 mM Tris-HCl pH 7.5, 150 mM KCl, 1 mM DTT, 500 µM EGTA + 1 mM Mg2+ or 1 mM Mg2+ + 1 mM Ca2+, room temperature; protein 20 µM (methods) or ~45 µM; apparent MW from a calibration curve
[2] = molecular target: T1, human recombinant ROS-GC1 (retinal guanylate cyclase 1) (human, UniProt Q02846 52-1103); experiment: cell-based or functional assay
T1 sequence (looked up): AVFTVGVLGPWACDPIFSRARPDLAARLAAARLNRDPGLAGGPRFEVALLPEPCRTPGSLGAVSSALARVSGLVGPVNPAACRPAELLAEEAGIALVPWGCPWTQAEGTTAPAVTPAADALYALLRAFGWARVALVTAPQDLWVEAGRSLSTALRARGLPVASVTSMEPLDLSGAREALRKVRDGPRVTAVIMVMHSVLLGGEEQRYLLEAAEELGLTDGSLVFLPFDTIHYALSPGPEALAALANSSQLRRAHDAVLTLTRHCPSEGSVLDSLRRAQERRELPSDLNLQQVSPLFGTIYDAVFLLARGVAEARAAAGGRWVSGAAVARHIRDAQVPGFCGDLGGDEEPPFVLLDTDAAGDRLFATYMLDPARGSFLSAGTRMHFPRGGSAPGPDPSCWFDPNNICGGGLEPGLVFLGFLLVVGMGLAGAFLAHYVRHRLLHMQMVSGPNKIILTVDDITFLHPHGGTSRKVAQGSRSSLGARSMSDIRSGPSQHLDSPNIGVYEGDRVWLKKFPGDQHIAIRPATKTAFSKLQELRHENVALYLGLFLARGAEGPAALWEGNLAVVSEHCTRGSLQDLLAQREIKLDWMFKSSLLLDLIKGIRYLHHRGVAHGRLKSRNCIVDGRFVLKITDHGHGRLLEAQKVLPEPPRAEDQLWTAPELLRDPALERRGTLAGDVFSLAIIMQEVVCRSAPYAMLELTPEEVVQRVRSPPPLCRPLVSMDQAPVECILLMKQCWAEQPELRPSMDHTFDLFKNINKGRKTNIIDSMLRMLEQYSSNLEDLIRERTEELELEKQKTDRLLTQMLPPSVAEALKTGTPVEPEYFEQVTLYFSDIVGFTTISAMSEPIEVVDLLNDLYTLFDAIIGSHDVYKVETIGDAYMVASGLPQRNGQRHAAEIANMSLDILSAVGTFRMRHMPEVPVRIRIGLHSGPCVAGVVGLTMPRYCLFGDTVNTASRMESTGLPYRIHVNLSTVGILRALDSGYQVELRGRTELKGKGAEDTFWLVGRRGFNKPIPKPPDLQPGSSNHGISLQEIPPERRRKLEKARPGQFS

B1: N104H-GCAP1 (guanylate cyclase-activating protein 1, variant p.Asn104His, in the E6S background) (natural protein, human, UniProt P43080 1-201, looked up)
chain: MGNVMSGKSVEELSSTECHQWYKKFMTECPSGQLTLYEFRQFFGLKNLSPSASQYVEQMFETFDFNKDGYIDFMEYVAALSLVLKGKVEQKLRWYFKLYDVDGHGCIDRDELLTIIQAIRAINPCSDTTMTAEEFTDTVFSKIDVNGDGELSLEEFIEGVQKDQMLLDTLTRSLDLTRIVRRLQNGEQDEEGADEAAEAAG
modifications: N-terminal myristoylation (by co-expressed S. cerevisiae N-myristoyl transferase, yNMT)
notes: cDNA of GCAP1-E6S in pET-11a (NdeI/NheI); c.310A>C p.(Asn104His) introduced by site-directed mutagenesis; N104H is a patient variant; E6S was put in by the authors to give the consensus for myristoylation by yNMT; No tag is mentioned; Myristoylation on Gly2 implies loss of the initiator Met (surmise); also called N104H-GCAP1 variant; p.N104H; source: E. coli BL21 co-transformed with pBB131-yNMT
- stoichiometry N [1]: 2
- GC activity (cGMP synthesis, HPLC) of HEK293 membranes with human GC as a function of N104H-GCAP1 concentration (0-10 µM) at <19 nM free Ca2+; EC50 = [N104H] at which GC activity is half-maximal [2]: 1.6 µM
